Paper PMC7494283

Target: SARS-CoV-2 prefusion-stabilized S ectodomain trimer (SARS-CoV-2 | not stated) (UniProt P0DTC2)

## S2X35 mAb (IgG1) (antibody)
  SARS-CoV-2 pseudovirus neutralization IC50; hinders ACE2 binding: 500 ng/mL
